We go through one molecule from PMC6141507, “A plant Bro1 domain protein BRAF regulates multivesicular body biogenesis and membrane protein homeostasis” (Nature Communications, 2018).

This test deals with T1, His-SUMO-FREE1 (Arabidopsis thaliana, UniProt Q9ASS2 1-601).
T1 construct: FREE1 (FYVE1), Arabidopsis thaliana, locus AT1G20110; also called Sumo-tagged FREE1; not shown: His, N-terminal, kept; SUMO, N-terminal, kept
T1 sequence (looked up): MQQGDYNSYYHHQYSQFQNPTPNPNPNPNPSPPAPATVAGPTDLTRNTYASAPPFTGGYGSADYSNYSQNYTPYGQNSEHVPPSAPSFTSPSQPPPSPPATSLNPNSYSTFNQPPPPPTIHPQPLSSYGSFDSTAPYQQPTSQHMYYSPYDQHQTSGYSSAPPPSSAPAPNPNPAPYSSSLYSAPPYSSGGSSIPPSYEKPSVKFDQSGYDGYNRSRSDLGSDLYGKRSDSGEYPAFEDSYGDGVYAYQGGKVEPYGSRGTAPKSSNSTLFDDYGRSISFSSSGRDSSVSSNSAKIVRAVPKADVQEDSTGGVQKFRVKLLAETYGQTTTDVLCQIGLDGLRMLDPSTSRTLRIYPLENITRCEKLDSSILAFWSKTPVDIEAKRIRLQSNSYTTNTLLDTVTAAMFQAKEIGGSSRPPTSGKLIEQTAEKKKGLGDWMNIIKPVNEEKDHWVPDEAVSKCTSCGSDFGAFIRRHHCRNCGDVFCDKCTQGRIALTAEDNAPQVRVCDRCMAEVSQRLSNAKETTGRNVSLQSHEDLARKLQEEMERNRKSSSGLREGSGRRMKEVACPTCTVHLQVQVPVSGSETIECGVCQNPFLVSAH
The test is described as follows: pull-down; competition: in vitro binding assay on amylose resin bound with MBP-Vps23A (or the Vps23A CC domain as bait) with a constant amount of one His-SUMO protein (30 pmol BRAF) and 10, 30, 100 or 300 pmol of the competing His-SUMO protein; immunoblot, quantified. The conditions noted are these: both partners purified. A general note: In western blotting, separated proteins are transferred to a membrane and probed.

B1: MBP-Vps23A (natural protein, Arabidopsis thaliana, UniProt Q9LHG8 1-398, looked up)
chain: MVPPPSNPQQVQQFLSSALSQRGPSSVPYEESNKWLIRQHLLNLISSYPSLEPKTASFMHNDGRSVNLLQADGTIPMPFHGVTYNIPVIIWLLESYPRHPPCVYVNPTADMIIKRPHAHVTPSGLVSLPYLQNWVYPSSNLVDLVSDLSAAFARDPPLYSRRRPQPPPPSPPTVYDSSLSRPPSADQSLPRPFPPSPYGGGVSRVQVQHVHHQQQSDDAAEVFKRNAINKMVEMVHSDLVSMRRAREAEAEELLSLQAGLKRREDELNIGLKEMVEEKETLEQQLQIISMNTDILDSWVRENQGKTKNLVDLDVDNAFECGDTLSKQMLECTALDLAIEDAIYSLDKSFQDGVVPFDQYLRNVRLLSREQFFHRATGSKVRAAQMEVQVAAIAGRLHS
notes: Vps23A/ELC, Arabidopsis thaliana, locus AT3G12400; Vector: in-house pRHisMBP; it may also add a His tag; source: E. coli BL21(DE3) pLysS, purified (amylose resin); not shown: MBP, N-terminal, kept
Consider B1, for which the binding result was “binds”.
